How the values were obtained:
Assay in all cases: ELISA; thermolysin coated on microtiter plates (100 ul; 10 ug/ml, 16 h, 4 C), blocked with 3% BSA in PBS; C6, C7, C8 or C9 added (100 ul; 0-5 ug/ml) for 1 h at 37 C; detected with goat polyclonal antibodies, absorbance at 492 nm; Kd by non-linear regression Y = Bmax*X/(Kd + X); for C6 also with a fixed amount (1 ug) in 0-600 mM NaCl (reduced only at 600 mM) or 0.05-1 ug heparin (dose-dependent inhibition)
Settings in all cases: both partners purified
[1] = target: T1, Complement component C7, purified from human plasma (human, UniProt P10643 23-843)
T1 construct: human complement component C7, 95 kDa single chain, purified from plasma; source: bought: Complement Technology (purified from human plasma)
T1 sequence (P10643 23-843): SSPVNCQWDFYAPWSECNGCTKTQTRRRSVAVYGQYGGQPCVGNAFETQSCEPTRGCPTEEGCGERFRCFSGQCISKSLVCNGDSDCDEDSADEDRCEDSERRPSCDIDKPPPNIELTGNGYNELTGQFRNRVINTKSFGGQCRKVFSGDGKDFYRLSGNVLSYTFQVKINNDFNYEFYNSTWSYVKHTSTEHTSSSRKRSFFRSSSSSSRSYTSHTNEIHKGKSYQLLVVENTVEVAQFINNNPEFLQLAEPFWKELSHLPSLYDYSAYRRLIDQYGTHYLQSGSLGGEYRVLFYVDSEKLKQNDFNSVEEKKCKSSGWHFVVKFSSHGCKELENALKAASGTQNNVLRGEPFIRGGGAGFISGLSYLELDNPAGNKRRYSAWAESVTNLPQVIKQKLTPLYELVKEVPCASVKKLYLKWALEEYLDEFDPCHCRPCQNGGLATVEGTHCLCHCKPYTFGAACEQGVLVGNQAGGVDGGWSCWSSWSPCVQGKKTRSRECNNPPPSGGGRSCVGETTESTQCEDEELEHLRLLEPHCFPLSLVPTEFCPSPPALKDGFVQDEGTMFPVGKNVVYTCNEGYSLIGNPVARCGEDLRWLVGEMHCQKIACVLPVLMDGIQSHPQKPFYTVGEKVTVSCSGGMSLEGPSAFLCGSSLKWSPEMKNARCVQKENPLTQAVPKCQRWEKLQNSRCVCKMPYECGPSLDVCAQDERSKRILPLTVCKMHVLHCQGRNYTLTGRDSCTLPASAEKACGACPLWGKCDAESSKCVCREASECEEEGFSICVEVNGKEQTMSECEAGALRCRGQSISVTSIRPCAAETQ

[2] = target: T2, Complement component C9, purified from human plasma (human, UniProt P02748 22-559)
T2 construct: human complement component C9, single 71 kDa polypeptide chain, purified from plasma; source: bought: Complement Technology (purified from human plasma)
T2 sequence (P02748 22-559): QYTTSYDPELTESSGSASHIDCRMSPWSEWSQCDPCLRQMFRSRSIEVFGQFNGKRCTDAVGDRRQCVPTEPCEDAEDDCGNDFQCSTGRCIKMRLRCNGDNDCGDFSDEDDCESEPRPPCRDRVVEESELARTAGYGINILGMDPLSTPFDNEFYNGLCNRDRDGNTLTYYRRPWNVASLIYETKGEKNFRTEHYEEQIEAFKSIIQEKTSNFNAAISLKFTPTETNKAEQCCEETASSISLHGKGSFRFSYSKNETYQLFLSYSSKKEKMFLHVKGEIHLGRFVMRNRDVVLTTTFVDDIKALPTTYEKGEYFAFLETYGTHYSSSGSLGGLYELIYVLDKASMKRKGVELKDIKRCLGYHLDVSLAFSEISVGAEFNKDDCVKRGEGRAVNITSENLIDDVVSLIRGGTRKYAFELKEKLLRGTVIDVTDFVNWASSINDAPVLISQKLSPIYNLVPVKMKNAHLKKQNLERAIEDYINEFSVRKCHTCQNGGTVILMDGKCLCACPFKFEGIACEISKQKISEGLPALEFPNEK

[3] = target: T3, Complement component C6, purified from human plasma (human, UniProt P13671 22-934)
T3 construct: human complement component C6, single polypeptide chain (~100 kDa), purified from plasma; source: bought: Complement Technology (purified from human plasma)
T3 sequence (P13671 22-934): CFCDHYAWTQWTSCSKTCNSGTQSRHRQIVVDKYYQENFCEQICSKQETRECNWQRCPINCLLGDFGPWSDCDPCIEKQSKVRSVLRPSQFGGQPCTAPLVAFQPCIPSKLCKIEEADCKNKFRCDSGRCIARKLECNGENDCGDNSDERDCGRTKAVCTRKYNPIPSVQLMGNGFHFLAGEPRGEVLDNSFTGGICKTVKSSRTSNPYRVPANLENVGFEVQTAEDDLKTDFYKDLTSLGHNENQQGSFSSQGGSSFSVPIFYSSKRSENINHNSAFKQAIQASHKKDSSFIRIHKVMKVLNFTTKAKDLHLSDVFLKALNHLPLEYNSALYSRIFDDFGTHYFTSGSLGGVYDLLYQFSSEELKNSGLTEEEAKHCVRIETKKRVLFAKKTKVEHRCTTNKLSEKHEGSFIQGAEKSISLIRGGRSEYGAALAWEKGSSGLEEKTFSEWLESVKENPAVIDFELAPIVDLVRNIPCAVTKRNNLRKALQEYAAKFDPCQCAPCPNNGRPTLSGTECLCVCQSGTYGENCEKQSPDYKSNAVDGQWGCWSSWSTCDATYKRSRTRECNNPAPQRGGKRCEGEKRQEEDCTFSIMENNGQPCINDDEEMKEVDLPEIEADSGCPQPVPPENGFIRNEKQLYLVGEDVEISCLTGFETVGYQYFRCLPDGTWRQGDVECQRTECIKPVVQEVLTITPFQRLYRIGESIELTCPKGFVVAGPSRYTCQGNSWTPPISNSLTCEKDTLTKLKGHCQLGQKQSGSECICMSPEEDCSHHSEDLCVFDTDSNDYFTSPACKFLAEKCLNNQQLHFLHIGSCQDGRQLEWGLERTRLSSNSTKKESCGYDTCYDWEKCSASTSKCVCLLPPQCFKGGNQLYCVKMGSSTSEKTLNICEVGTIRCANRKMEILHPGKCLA

[4] = target: T4, Complement component C8, purified from human plasma (human, UniProt P07357 31-584; P07358 55-591; P07360 21-202)
T4 construct: human complement component C8 alpha chain (~64 kDa), purified from plasma as intact C8; human complement component C8 beta chain (~64 kDa), purified from plasma as intact C8; human complement component C8 gamma chain (~22 kDa), purified from plasma as intact C8; Intact C8 of three polypeptide chains (alpha, beta, gamma); source: bought: Complement Technology (purified from human plasma); copies: …
T4 sequence (P07357 31-584, chain 1 of 3): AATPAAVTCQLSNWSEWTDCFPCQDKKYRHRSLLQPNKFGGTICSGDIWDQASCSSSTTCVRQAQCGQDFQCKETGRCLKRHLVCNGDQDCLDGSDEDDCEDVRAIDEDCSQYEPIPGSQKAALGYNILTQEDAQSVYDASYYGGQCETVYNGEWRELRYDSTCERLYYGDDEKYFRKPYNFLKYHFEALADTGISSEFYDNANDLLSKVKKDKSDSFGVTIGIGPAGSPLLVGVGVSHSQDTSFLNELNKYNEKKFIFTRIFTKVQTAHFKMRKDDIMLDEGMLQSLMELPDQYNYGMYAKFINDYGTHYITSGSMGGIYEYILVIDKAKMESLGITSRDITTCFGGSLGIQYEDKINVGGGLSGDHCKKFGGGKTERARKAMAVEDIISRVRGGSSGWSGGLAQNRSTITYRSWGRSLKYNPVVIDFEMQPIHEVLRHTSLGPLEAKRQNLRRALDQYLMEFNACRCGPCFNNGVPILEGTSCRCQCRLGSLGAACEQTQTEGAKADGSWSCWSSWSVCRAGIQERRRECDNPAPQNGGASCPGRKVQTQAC
T4 sequence (P07358 55-591, chain 2 of 3): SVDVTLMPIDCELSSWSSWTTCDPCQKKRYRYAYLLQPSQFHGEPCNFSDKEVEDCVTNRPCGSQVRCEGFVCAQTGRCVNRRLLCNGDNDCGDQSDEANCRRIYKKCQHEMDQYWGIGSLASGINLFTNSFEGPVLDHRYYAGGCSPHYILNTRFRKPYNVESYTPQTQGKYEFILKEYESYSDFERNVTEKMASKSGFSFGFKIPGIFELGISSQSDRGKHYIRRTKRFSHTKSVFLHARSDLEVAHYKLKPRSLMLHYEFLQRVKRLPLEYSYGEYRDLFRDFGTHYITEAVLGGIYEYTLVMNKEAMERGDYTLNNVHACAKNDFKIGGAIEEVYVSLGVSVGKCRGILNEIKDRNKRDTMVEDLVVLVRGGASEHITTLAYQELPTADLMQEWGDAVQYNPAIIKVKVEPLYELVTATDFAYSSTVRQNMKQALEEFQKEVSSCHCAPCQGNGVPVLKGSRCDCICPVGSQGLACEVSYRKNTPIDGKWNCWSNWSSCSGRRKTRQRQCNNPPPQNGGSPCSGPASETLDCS
T4 sequence (P07360 21-202, chain 3 of 3): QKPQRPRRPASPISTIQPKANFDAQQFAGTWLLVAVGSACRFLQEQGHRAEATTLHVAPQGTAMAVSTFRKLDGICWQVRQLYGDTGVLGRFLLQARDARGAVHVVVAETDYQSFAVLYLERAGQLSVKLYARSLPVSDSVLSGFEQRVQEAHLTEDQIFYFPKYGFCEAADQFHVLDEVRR

B1: recombinant thermolysin (LIC13322), PepSY-M4 fragment (domain or fragment)
chain: EFYQVPENFNSSPKLSESEALSKTLKHIGAKKYIWESVEREAALKRKKNDPNASYFPKGELLVYEHSLGKSNTKKEFRLAYKFGIASIDPPISRYVYVDSNSGEILSSKDARRYEGVQFPSPKPPIEIDIDYSRCIIDKEYCIEQGTAMTRFSGLQSITTWTAGKTNHFELKDNSRGGGIYTYSWEFVKDPLEDIQLLNIPMIDTNNSWSQSEYHDNYNHDALLDAHWGIEMTYDYFKSIHNRLSYDGDNSRIFNNVHYFNAFVANNAYWDPVTEEIYYVYCPHKNSICKGFNLPILLDPKYEDFTSLDIVSHEFGHGINGDLAGFNLDMEPGALDEGFSDIWNVGVNNYVNKVLGMQKNIWLVGDETVPGGGMRSVSNPKSTTVMSPGPNTYHGDLWDFEDNEAHTNSLVLSHWFYTLSKGKQGFNDYECTYNVSGIGIEKAERIAYVALLFLSSTSGYTSARTYAIIAAKLLYGLFSSEVKSTIDAWDAVAVPAETTSRGGQGMVRPRHYIASVKLSNVTNDSGNDCGYKDNSYLLPTVLRGVTYNMVLLSQGSASNPSKVHKWRVWIDFNQNGSFESSEMVVQDTVNSSFGGTLQKSIKIPTNALTGYAKMRVSMKAAQSGEAYQGSSESFVEGEVEDYIVSILDFSL
B1 showed a Kd [1] of 0.0178 ± 0.0013 µM, a Kd [2] of 0.0568 ± 0.0052 µM and a Kd [3] of 0.0318 ± 0.0022 µM. The Kd [4] was 0.062 ± 0.0071 µM.

Source: PMC5447677, “Pathogenic Leptospira Secreted Proteases Target the Membrane Attack Complex: A Potential Role for Thermolysin in Complement Inhibition” (Frontiers in Microbiology, 2017)
